B1: r4_43_TrROS_Hall (parent)
chain: DLVTIKVPLENLEEIKKAAEKAGFKIVSISYDKENKEVTIVIEKKK
B2: 6YSE (parent)
chain: HERALMVNRLQKLTRMLRVHPDPKWKQEQQELIKRLK

Variants of: B1
Assay: folding stability dG (cDNA display proteolysis); higher = more stable
Details: PBS, room temperature

Folding stability dG [kcal/mol]: each site, then its substitutions
E37: S 3.81
T39: D 3.21
E20: A 3.68; W 3.99
D32: A 3.54; F 3.67
G23: N 3.44; A 3.54
K46: Y 4.33
F24: I 2.52; G 2.74
N11: L 3.67; R 4.15
D1: P 3.56
K45: I 3.87; W 4.49
S28: D 3.02; N 3.42
E10: W 3.79
A22: Q 3.62
V41: R 3.47
K21: M 4.03
L2: I 3.13; E 3.45
I15: H 3.73; T 3.38; P 1.54; S 3.41
V38: T 3.23; W 4.33
E43: A 3.71
Y31: N 2.95
K6: N 3.37
K25: N 3.34; W 3.57
E13: A 3.28; Q 3.6
I29: G 1.61; T 3.56
E34: K 3.83
A19: V 3.97
T4: G 3.14; H 3.64; I 3.54
A18: G 3.34; C 3.97
I40: Q 0.343
N35: H 3.54; E 3.47
L12: H 3.41; G 3.16; R 2.8
K36: R 3.88; I 3.54; C 3.19; N 3.51
I42: C 3.24; V 3.46
V27: R 3.96
I26: G 0.98; Q 2.02
V7: D 1.97; W 3.44; C 3.66

Variants of: B2
Assay: as above
Details: PBS, room temperature

Folding stability dG [kcal/mol]: each site, then its substitutions
D22: V 0.67; H 1.3; M 0.675; E 0.749; N 1.67; R 1.06; A 0.299; T 1.13; K 1.23; I 0.677; W 0.947; F 1.07; G 0.117; L 1.22; Y 1.14; S 1.09
Q30: E 1.38; W 1.39; K 0.968; F 0.851; Y 1.04; T 1.13; L 1.52; I 1.37; R 1.21; N 0.979; C 1.75; A 1.07; M 1.42; V 1.1; S 1.11; D 0.872; H 0.978; G 0.68
L36: R -0.888; M 0.478; Y -0.212; I 0.873; W -0.411; F 0.524
K26: S 0.461; Y 1.17; H 1.01; G -0.052; M 1.29; Q 1.03; A 0.85; I 1.4; L 1.45; D -0.129; N 0.211; W 0.964; C 0.732; R 1.32; V 1.16; F 1.53; T 0.715; E 1.14
P23: R 0.598; V 0.701; E 0.721; M 0.09; S 0.806; G 0.641; Y 0.554; K 0.967; L 0.804; A 1.03; W 0.75; N 0.238; H 0.269; D 0.676; T 0.669; Q 0.666; F 0.718; I 0.608
R35: M 0.84; Y 1.16; T 0.734; I 1.58; G -0.14; L 1.73; W 1.42; Q 1.19; N 0.739; A 1.24; K 1.51; V 1.14; D -0.514; S 0.493; H 0.82; F 1.18; E 0.729
W25: F 1.25; M 1.71; I 1.62; V 1.22; Y 1.32; G 0.387; R 0.719; K 0.636; H 0.686; L 1.97; D 0.337; Q 0.755; A 0.973; S 0.206; N 0.386; T 0.731
Q27: G 0.59; W 0.767; L 1.62; V 0.985; Y 0.821; H 1.21; I 1.22; S 1.04; M 1.38; K 1.46; N 1.09; F 1.14; E 1.42; T 1.01; R 1.23; A 1.6; D 0.957
I33: E -0.101; H -0.268; Q -0.155; G -0.702; F 0.663; S -0.232; Y 0.751; T 0.17; M 0.592; R 0.898; A 0.217; W 0.93; V 0.738; N 0.375; K 0.269; L 1.17
Q29: A 1.48; T 0.863; F 1.53; H 0.663; S 0.65; V 1.68; E 0.805; D -0.859; M 1.72; R 1.47; L 1.85; W 1.47; Y 1.7; I 1.69; C 1.52
P21: V 0.805; D 1.37; Q 1.36; T 0.908; L 0.688; I 0.664; Y 2.16; E 1.09; A 1.18; M 1.13; K 1.04; F 2.15; N 1.51; G 0.843; C 0.966; W 2.02; H 1.57; R 0.878
K24: Q 1.22; H 0.889; A 1.24; T 1.3; M 1.09; R 1.34; V 1.31; L 1.11; E 1.01; F 0.828; S 0.97; N 0.982; I 1.32; G 0.85; W 0.63; Y 1.13; D 0.986
E31: C 1.69; F 1.01; A 1.2; G 0.441; R 1.15; T 0.995; S 0.996; D 1.38; M 1.45; L 1.08; Q 0.963; V 0.669; Y 1.1; K 0.805; H 0.812; W 1.4; N 0.839; I 1.14
K34: M 1.34; R 1.51; V 1.03; F 1.2; C 1.59; A 1.37; I 1.31; W 0.902; E 1.14; G 0.802; T 1.27; H 1.11; D 0.366; L 1.15; Q 1.25; Y 1.02; S 1.07; N 1
K37: W 1.43; T 1.25; S 1.19; H 1.19; V 0.95; E 1.05; R 1.55; D 0.831; L 1.42; I 1.08; N 1.24; Q 1.8; Y 1.74; F 1.68; M 1.7; G 1.27
L32: Y -0.525; I 0.927; M -0.196; F -0.201; W -0.364
E28: T -0.079; F 0.366; R -0.089; Q 0.317; M 0.854; L 0.849; W 0.824; V 0.452; S -0.485; Y 0.612; D -0.285; N -0.895; A 0.638; I 1.05
H20: S 1.26; T 1.13; V 0.774; R 1.19; W 1.39; Y 1.47; Q 0.946
